Source: PMC7425898, “Human Golgi phosphoprotein 3 is an effector of RAB1A and RAB1B” (PLoS ONE, 2020)

Columns and labels:
[1] = biological target: T1, Recombinant, untagged GOLPH3 (human, UniProt Q9H4A6 1-298); experiment: ITC; GOLPH3 (100 μM) in the chamber, RAB1A or RAB1B (1 mM) injected; 25°C; 50 mM Tris-HCl, 150 mM NaCl, 1 mM DTT, pH 7.4; one-site model; no nucleotide exchange; conditions: both partners purified
T1 construct: Golgi phosphoprotein 3 (GOLPH3), human, full-length cDNA NM_022130, cloned into pGST-Parallel-1; removal of GST by TEV is surmised from the vector and from the method told for RAB1; also called purified recombinant GOLPH3; not shown: GST, N-terminal, cleaved

GST-RAB1A-Q70L = biological target: T2, GST-RAB1A-Q70L (human, UniProt P62820 1-205, Q70L); experiment: pull-down; GST or GST-tagged RAB1A/B variants on glutathione-Sepharose 4B, soluble protein extract of H4 cells (0.5 mg) with protease and phosphatase inhibitors; binding buffer-1; 3 h, 4°C; immunoblot for GOLPH3, densitometry; conditions: one partner purified
T2 construct: RAB1A, human, full length, in pGST-Parallel-1, GTP-locked variant; also called GST-tagged, GTP-locked active state variant of RAB1A; source: E. coli B834(DE3), purified on glutathione-Sepharose 4B
T2 sequence (P62820 whole entry Q70L): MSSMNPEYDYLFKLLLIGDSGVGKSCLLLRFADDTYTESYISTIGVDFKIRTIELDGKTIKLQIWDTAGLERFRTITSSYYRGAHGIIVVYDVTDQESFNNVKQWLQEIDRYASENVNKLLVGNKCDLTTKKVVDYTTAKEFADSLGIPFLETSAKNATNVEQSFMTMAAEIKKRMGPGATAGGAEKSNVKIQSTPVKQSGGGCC

GST-RAB1B-Q67L = biological target: T3, GST-RAB1B-Q67L (human, UniProt Q9H0U4 1-201, Q67L); experiment: as above; conditions: one partner purified
T3 construct: RAB1B, human, full length, in pGST-Parallel-1, GTP-locked variant; also called GST-tagged, GTP-locked active state variant of RAB1B; source: E. coli B834(DE3), purified on glutathione-Sepharose 4B
T3 sequence (Q9H0U4 whole entry Q67L): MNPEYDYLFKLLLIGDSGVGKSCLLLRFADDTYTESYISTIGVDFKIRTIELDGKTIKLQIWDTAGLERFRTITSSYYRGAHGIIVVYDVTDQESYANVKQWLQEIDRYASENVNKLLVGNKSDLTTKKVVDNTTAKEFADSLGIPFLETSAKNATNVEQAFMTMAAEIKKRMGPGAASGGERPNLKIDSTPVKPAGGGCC

GFP-RAB1A-Q70L = biological target: T4, GFP-RAB1A-Q70L (human, UniProt P62820 1-205, Q70L); experiment: co-IP; GFP-Trap agarose beads with extracts (0.2 mg) of H4 cells expressing GFP or GFP-RAB1A/B variants, supplemented with extract (0.3 mg) of non-transfected cells; 25 mM Tris-HCl, 50 mM NaCl, 0.1% NP-40, pH 7.5; 1.5-4 h, 4°C; immunoblot for GOLPH3, densitometry; conditions: partners not purified
T4 construct: RAB1A, human, pEGFP construct, GTP-locked variant; also called GFP-tagged GTP-locked active state variant of RAB1A; source: H4 cells, transfected (pEGFP construct), in soluble protein extract
T4 sequence (P62820 whole entry Q70L): as the sequence (P62820 whole entry Q70L) above

GFP-RAB1B-Q67L = biological target: T5, GFP-RAB1B-Q67L (human, UniProt Q9H0U4 1-201, Q67L); experiment: as above; conditions: partners not purified
T5 construct: RAB1B, human, pEGFP construct, GTP-locked variant; also called GFP-tagged GTP-locked active state variant of RAB1B; source: H4 cells, transfected (pEGFP construct), in soluble protein extract
T5 sequence (Q9H0U4 whole entry Q67L): as the sequence (Q9H0U4 whole entry Q67L) above

[2] = biological target: T1, Recombinant, untagged GOLPH3; experiment: pull-down; GST-RAB1A/B (50 μM) or GST on glutathione-Sepharose 4B, increasing concentrations of recombinant GOLPH3; 20 mM HEPES, 100 mM NaCl, 5 mM MgCl2, 1 mM DTT, 1% CHAPS, pH 7.2; 3 h, 4°C; Coomassie, densitometry, non-linear fit assuming 1:1; apparent KD; conditions: both partners purified

B1: Purified, recombinant RAB1A (natural protein)
chain: not shown
notes: RAB1A, human, full length, from pGST-Parallel-1, GST removed by TEV protease; source: E. coli B834(DE3), purified (glutathione-Sepharose 4B, TEV cleavage, Ni-NTA, Superdex 200)
Kd [1]: 61.9 µM | stoichiometry N [1]: 1

B2: Purified, recombinant RAB1B (natural protein)
chain: not shown
notes: RAB1B, human, full length, from pGST-Parallel-1, GST removed by TEV protease; source: E. coli B834(DE3), purified (glutathione-Sepharose 4B, TEV cleavage, Ni-NTA, Superdex 200)
Kd [1]: 78.4 µM | stoichiometry N [1]: 1

B3: Endogenous GOLPH3 (natural protein, human (endogenous in H4), UniProt Q9H4A6 1-298, looked up)
chain: MTSLTQRSSGLVQRRTEASRNAADKERAAGGGAGSSEDDAQSRRDEQDDDDKGDSKETRLTLMEEVLLLGLKDREGYTSFWNDCISSGLRGCMLIELALRGRLQLEACGMRRKSLLTRKVICKSDAPTGDVLLDEALKHVKETQPPETVQNWIELLSGETWNPLKLHYQLRNVRERLAKNLVEKGVLTTEKQNFLLFDMTTHPLTNNNIKQRLIKKVQEAVLDKWVNDPHRMDRRLLALIYLAHASDVLENAFAPLLDEQYDLATKRVRQLLDLDPEVECLKANTNEVLWAVVAAFTK
notes: Golgi phosphoprotein 3 (GOLPH3), endogenous in human H4 neuroglioma cells; source: endogenous, H4 human neuroglioma cells, soluble protein extract
fold of GOLPH3 pulled down against the wild type variant (GST-RAB1A-Q70L): ~1.2 times | fold of GOLPH3 pulled down against the wild type variant (GST-RAB1B-Q67L): ~1.1 times | fold of GOLPH3 pulled down against the wild type variant (GFP-RAB1A-Q70L): ~1.2 times | fold of GOLPH3 pulled down against the wild type variant (GFP-RAB1B-Q67L): ~1.1 times

B4: GST-RAB1B (wild type) (natural protein)
chain: not shown
notes: RAB1B, human, full length, cloned into pGST-Parallel-1; also called GST-tagged RAB1B; GST-RAB1A/B; source: E. coli B834(DE3), purified on glutathione-Sepharose 4B
Kd [2]: 64.2 ± 3.7 µM

B5: GST-RAB1A (wild type) (natural protein)
chain: not shown
notes: RAB1A, human, full length, cloned into pGST-Parallel-1; also called GST-tagged RAB1A; GST-RAB1A/B; source: E. coli B834(DE3), purified on glutathione-Sepharose 4B
Kd [2]: 54.7 ± 4.2 µM
